{"source": "paper PMC11256085", "biological_target": "EnfB, ThiF-like adenylyltransferase (TLAT) (Enterococcus faecium strain FDAARGOS_397 (methods); E. faecalis FDAARGOS_397 (results))"}
{"substance": "EnfA with Trp18 substituted by Ala (peptide)", "values": [{"measurement": "conversion of the EnfA variant by EnfB (in vitro enzyme assay, LC-MS)", "value": 2.1, "unit": "%"}]}
